# Entries after “also recorded” stand apart in the source; their conditions may differ.
# B1: pkLAP: commercially available microsomal LAP from porcine kidney (MEROPS>M1 family) (protein, UniProt P15145 2-963, looked up)
# Aminopeptidase N: AKGFYISKALGILGILLGVAAVATIIALSVVYAQEKNKNAEHVPQAPTSPTITTTAAITLDQSKPWNRYRLPTTLLPDSYNVTLRPYLTPNADGLYIFKGKSIVRLLCQEPTDVIIIHSKKLNYTTQGHMVVLRGVGDSQVPEIDRTELVELTEYLVVHLKGSLQPGHMYEMESEFQGELADDLAGFYRSEYMEGNVKKVLATTQMQSTDARKSFPCFDEPAMKATFNITLIHPNNLTALSNMPPKGSSTPLAEDPNWSVTEFETTPVMSTYLLAYIVSEFQSVNETAQNGVLIRIWARPNAIAEGHGMYALNVTGPILNFFANHYNTSYPLPKSDQIALPDFNAGAMENWGLVTYRENALLFDPQSSSISNKERVVTVIAHELAHQWFGNLVTLAWWNDLWLNEGFASYVEYLGADHAEPTWNLKDLIVPGDVYRVMAVDALASSHPLTTPAEEVNTPAQISEMFDSISYSKGASVIRMLSNFLTEDLFKEGLASYLHAFAYQNTTYLDLWEHLQKAVDAQTSIRLPDTVRAIMDRWTLQMGFPVITVDTKTGNISQKHFLLDSESNVTRSSAFDYLWIVPISSIKNGVMQDHYWLRDVSQAQNDLFKTASDDWVLLNVNVTGYFQVNYDEDNWRMIQHQLQTNLSVIPVINRAQVIYDSFNLATAHMVPVTLALDNTLFLNGEKEYMPWQAALSSLSYFSLMFDRSEVYGPMKKYLRKQVEPLFQHFETLTKNWTERPENLMDQYSEINAISTACSNGLPQCENLAKTLFDQWMSDPENNPIHPNLRSTIYCNAIAQGGQDQWDFAWGQLQQAQLVNEADKLRSALACSNEVWLLNRYLGYTLNPDLIRKQDATSTINSIASNVIGQPLAWDFVQSNWKKLFQDYGGGSFSFSNLIQGVTRRFSSEFELQQLEQFKKNNMDVGFGSGTRALEQALEKTKANIKWVKENKEVVLNWFIEHS
# What was measured:
# [1] = system: fuLAP2; assay type: biochemical, Aspergillus fumigatus; details: inhibitor 40 μM; Leu-MCA substrate
# Protocol: (§1) Inhibitors and metallic cations were pre-incubated with the enzymes for 15 min at 37° C. Then, Leu-AMC at a 5 mM final concentration was added. After further incubation for 60 min, enzyme activity was measured as described above. The inhibitors and their concentrations tested purified LAPs were: 500 μM amastatin (Bachem), 40 μM benzamidine (Sigma), 500 μM bestatin (Bachem), 5 mM/l mM EDTA (Sigma). 100 μM E-64 (L-trans-epoxysuccinyl-leu-4-guanidinobutylamide) (Bachem), 100 μM leupeptin (Sigma), 5 mM/1 mM ortho-phenanthroline (Sigma), 500 μM p-chloromercuribenzoic acid (Sigma), 100 μM pepstatin A (Sigma), 40 μM PMSF (Sigma), 20 μM TLCK (Roche Diagnostics), and 20 μM TPCK (Roche Diagnostics).
# [2] = system: all the LAPs tested (ruLAP1, ruLAP2, fuLAP1, fuLAP2, pkLAP); assay type: biochemical; details: Leu-AMC 5 mM; amastatin 500 μM; ortho-phenantroline 1 and 5 mM; others as
# Protocol: as §1
# [3] = target: ruLAP1 (Trichophyton rubrum, UniProt Q5QHG5); assay type: biochemical; details: inhibitor 40 μM; Leu-MCA substrate
# Protocol: as §1
# [4] = target: fuLAP1 (Aspergillus fumigatus, UniProt Q5VJG6); assay type: biochemical; details: inhibitor 40 μM; Leu-MCA substrate
# Protocol: as §1
# [5] = target: ruLAP2 (Trichophyton rubrum, UniProt Q5QHG6); assay type: biochemical; details: inhibitor 40 μM; Leu-MCA substrate
# Protocol: as §1
# [6] = system: T. rubrum secreted proteolytic activity; assay: Inhibition of T. rubrum secreted proteolytic activity (resorufin-labeled casein); assay type: biochemical, Trichophyton rubrum; details: resorufin-labeled casein as substrate
# Protocol: The proteolytic activity was measured using resorufin-labeled casein in phosphate buffer (20 mM; pH 7.4). The reaction mixture contained 0.02% substrate in a total volume of 0.5 ml. After incubation at 37° C., the undigested substrate was precipitated by trichloroacetic add (4% final concentration) and separated from the supernatant by centrifugation. The absorbance at 574 nm of the supernatant was measured after alkalinization by adding 500 μl Tris buffer (500 mM; pH 9.4). For practical purposes, one unit (U) of proteolytic activity was defined as that producing an absorbance of 0.001 per min.
# T. rubrum was grown at 30° C. in a medium containing 0.2% soy protein as a sole carbon and nitrogen source. After 14 days of growth, a concomitant clarification of the culture medium was noted and a substantial proteolytic activity (400 U ml^−1) detected using resorufin-labeled casein as substrate. This proteolytic activity was 15% and 85% inhibited by PMSF and ortho-phenanthroline. respectively, attesting that serine and metalloproteases were secreted by T. rubrum. […] In addition, a high activity on substrates such as Leu-AMC and Leu-pNA was detected in the T. rubrum culture supernatant.
# [7] = target: T1, pkLAP (microsomal LAP from porcine kidney) (Sus scrofa, UniProt P15145); assay: Effect of chemical reagents (inhibitors, metallic cations) on LAP activity with Leu-AMC; assay type: biochemical; details: inhibitor 40 μM; Leu-MCA substrate
# T1 construct: purchased Sigma; host or cells: porcine kidney
# T1 sequence (P15145 1-963): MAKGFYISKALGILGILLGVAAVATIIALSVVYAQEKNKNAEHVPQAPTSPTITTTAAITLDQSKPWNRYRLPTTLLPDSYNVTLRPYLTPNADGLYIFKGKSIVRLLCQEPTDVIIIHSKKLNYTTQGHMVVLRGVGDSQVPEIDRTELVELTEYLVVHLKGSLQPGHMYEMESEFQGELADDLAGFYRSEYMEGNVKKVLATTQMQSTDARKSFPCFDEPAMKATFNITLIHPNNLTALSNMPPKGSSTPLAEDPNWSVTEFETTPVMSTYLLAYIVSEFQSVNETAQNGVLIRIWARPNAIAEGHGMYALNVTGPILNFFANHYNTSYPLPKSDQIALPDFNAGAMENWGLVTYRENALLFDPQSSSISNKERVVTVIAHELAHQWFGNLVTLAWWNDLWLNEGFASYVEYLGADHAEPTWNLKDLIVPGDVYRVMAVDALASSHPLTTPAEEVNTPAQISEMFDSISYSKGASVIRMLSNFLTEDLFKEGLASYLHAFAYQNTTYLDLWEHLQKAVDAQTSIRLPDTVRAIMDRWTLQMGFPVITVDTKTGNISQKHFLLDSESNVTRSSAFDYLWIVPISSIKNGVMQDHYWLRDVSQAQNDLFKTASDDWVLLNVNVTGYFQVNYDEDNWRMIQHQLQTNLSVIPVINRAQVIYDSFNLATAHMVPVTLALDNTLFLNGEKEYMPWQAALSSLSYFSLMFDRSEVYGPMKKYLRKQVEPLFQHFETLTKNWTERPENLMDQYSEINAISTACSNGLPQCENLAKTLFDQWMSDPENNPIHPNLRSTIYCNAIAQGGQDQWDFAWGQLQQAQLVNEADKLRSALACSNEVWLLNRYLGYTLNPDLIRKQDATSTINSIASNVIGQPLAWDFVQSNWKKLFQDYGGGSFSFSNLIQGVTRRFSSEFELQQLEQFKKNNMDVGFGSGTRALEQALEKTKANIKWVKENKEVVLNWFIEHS
# Protocol: as §1
# [8] = Aminopeptidase activity assay with fluorogenic aminoacyl-AMC substrates; assay type: biochemical
# Protocol: (§2) Aminopeptidase activity was determined using different fluorogenic aminoacyl-4-methylcoumaryl-7-amide derivatives of peptides and the internally quenched fluorogenic substrate Lys(Abz)-Pro-Pro-pNA for specific determination of aminopeptidase P activity. Stockel et al, Adv Exp. Med. Biol. 421:31-35 (1997). All substrates were from Bachem (Bubendorf, Switzerland). Substrate stock solutions were prepared at 0.1 M according to the recommendations of the manufacturer and stored at −20° C. The reaction mixture contained a concentration of 5 mM substrate and enzyme preparation (between 56 and 2,662 ng per assay depending on the cleavage activity of each enzyme for the substrates) in 25 μl of 50 mM Tris-HCl buffer adjusted at the optimal pH for each LAP (between 7 and 8). After incubation at 37° C. for 60 min, the reaction was terminated by adding 5 μl of glacial acetic acid and the reaction mixture was diluted with 3.5 ml of water. The released 7-amino-4-methylcoumarin (AMC) was measured using a spectrofluorophotometer (Perkin Elmer LS-5 fluorometer, Zurich, Switzerland) at an excitation wavelength of 370 nm and an emission wavelength of 460 nm. A standard curve made with synthetic AMC was used to assess the released AMC. The released diprolyl-p-nitroanilide was measured at an excitation wavelength of 310 nm and an emission wavelength of 410 nm. The LA activities were expressed in mnoles of released AMC or pNA/min/μg protein.
# Table 15 details the hydrolytic activity of different LAPs toward various aminoacyl-MCA comparison (%) to Leu-MCA used as a standard.
# [9] = system: gliadin 33 mer; assay: Digestion of gliadin 33 mer (RP-HPLC, ESI-MS); assay type: biochemical, wheat; details: 37° C., 1 mM CoCl2, pH7.2
# [10] = Aminopeptidase P activity assay; assay type: biochemical; details: substrate Lys(Abz)-Pro-Pro-pNA, 5 mM, 37° C., 60 min
# Protocol: as §2
# Sequence of ruLAP1 (Q5QHG5 19-373): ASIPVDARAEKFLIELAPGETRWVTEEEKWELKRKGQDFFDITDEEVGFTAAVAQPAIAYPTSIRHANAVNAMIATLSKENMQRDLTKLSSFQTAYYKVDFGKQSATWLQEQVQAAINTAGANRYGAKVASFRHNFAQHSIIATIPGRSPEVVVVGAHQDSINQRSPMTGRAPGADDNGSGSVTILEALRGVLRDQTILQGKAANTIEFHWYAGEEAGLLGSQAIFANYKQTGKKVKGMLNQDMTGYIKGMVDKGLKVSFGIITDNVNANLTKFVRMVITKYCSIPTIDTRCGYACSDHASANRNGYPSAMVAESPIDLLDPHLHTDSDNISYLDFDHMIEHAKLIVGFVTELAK
# Sequence of fuLAP1 (Q5VJG6 15-388, looked up, natural form): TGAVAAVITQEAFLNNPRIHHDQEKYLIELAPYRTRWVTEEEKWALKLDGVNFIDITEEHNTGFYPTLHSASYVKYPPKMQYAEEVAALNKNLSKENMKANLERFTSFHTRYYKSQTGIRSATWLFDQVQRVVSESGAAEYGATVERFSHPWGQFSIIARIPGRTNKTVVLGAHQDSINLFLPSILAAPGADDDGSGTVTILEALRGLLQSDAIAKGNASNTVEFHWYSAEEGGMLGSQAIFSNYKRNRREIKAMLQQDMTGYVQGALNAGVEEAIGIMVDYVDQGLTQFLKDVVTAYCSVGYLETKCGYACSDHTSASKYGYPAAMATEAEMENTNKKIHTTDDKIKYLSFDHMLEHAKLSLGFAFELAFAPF
# Sequence of ruLAP2 (Q5QHG6 22-495): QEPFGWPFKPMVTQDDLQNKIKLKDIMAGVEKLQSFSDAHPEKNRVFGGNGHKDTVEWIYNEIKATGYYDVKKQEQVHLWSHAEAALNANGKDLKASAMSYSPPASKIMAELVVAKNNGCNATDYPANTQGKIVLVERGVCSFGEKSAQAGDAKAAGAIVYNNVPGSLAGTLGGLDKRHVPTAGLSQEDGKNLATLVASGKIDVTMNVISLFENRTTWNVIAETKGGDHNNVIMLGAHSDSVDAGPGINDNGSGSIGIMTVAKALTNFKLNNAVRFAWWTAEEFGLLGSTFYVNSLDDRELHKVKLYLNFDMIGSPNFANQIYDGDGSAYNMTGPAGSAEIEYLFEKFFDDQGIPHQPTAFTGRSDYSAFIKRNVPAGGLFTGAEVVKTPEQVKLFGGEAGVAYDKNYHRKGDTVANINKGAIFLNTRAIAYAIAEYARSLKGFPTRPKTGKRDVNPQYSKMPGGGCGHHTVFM
molecule,measurement,setting,value
O=S(=O)(F)Cc1ccccc1 [PMSF],"fuLAP2 hydrolytic activity, percentage of control without inhibitor",[1],84%
same,effect of inhibitor on all the LAPs tested,[2],no clear inhibitory effects
same,"ruLAP1 hydrolytic activity, percentage of control without inhibitor",[3],78%
same,"fuLAP1 hydrolytic activity, percentage of control without inhibitor",[4],156%
same,"ruLAP2 hydrolytic activity, percentage of control without inhibitor",[5],79%
same,inhibition of proteolytic activity,[6],15%
same,"pkLAP hydrolytic activity, percentage of control without inhibitor",[7],58%
c1cnc2c(c1)ccc1cccnc12 [ortho-phenanthroline],effect of inhibitor on all the LAPs tested,[2],totally inhibited
same,inhibition of proteolytic activity,[6],85%
B1,hydrolysis of Leu-AMC,[8],efficiently hydrolyzed
same,preference for aminoacyl-AMC substrates compared to Leu-AMC,[8]; Leu-AMC used as a reference,extremely high efficiency towards Ala-AMC and Arg-AMC; also recorded: common preference for Leu-AMC as a substrate
same,hydrolytic activity toward Ala-AMC in comparison (%) to Leu-MCA,"[8]; substrate Ala-AMC, 5 mM, 37° C., 60 min",584.7%
same,hydrolytic activity toward Arg-AMC in comparison (%) to Leu-MCA,"[8]; substrate Arg-AMC, 5 mM, 37° C., 60 min",174.8%
same,hydrolytic activity toward Asn-AMC in comparison (%) to Leu-MCA,"[8]; substrate Asn-AMC, 5 mM, 37° C., 60 min",33.9%
same,hydrolytic activity toward Asp-AMC in comparison (%) to Leu-MCA,"[8]; substrate Asp-AMC, 5 mM, 37° C., 60 min",0.9%
same,hydrolytic activity toward Cys-AMC in comparison (%) to Leu-MCA,"[8]; substrate Cys-AMC, 5 mM, 37° C., 60 min",35.5%
same,hydrolytic activity toward Gln-AMC in comparison (%) to Leu-MCA,"[8]; substrate Gln-AMC, 5 mM, 37° C., 60 min",50.7%
same,hydrolytic activity toward Glu-AMC in comparison (%) to Leu-MCA,"[8]; substrate Glu-AMC, 5 mM, 37° C., 60 min",4.7%
same,hydrolytic activity toward Gly-AMC in comparison (%) to Leu-MCA,"[8]; substrate Gly-AMC, 5 mM, 37° C., 60 min",74.8%
same,hydrolytic activity toward Gly-Pro-AMC in comparison (%) to Leu-MCA,"[8]; substrate Gly-Pro-AMC, 5 mM, 37° C., 60 min",16.7%
same,hydrolytic activity toward His-AMC in comparison (%) to Leu-MCA,"[8]; substrate His-AMC, 5 mM, 37° C., 60 min",17.6%
same,hydrolytic activity toward Hyp-AMC in comparison (%) to Leu-MCA,"[8]; substrate Hyp-AMC, 5 mM, 37° C., 60 min",1.7%
same,hydrolytic activity toward Ile-AMC in comparison (%) to Leu-MCA,"[8]; substrate Ile-AMC, 5 mM, 37° C., 60 min",6.3%
same,hydrolytic activity toward Leu-AMC in comparison (%) to Leu-MCA used as a standard,"[8]; substrate Leu-AMC (standard), 5 mM, 37° C., 60 min",100.0%
same,hydrolytic activity toward Lys-AMC in comparison (%) to Leu-MCA,"[8]; substrate Lys-AMC, 5 mM, 37° C., 60 min",70.1%
same,hydrolytic activity toward Met-AMC in comparison (%) to Leu-MCA,"[8]; substrate Met-AMC, 5 mM, 37° C., 60 min",46.1%
same,hydrolytic activity toward Phe-AMC in comparison (%) to Leu-MCA,"[8]; substrate Phe-AMC, 5 mM, 37° C., 60 min",184.4%
same,hydrolytic activity toward Pro-AMC in comparison (%) to Leu-MCA,"[8]; substrate Pro-AMC, 5 mM, 37° C., 60 min",7.9%
same,hydrolytic activity toward Pyr-AMC in comparison (%) to Leu-MCA,"[8]; substrate Pyr-AMC, 5 mM, 37° C., 60 min",0.0%
same,hydrolytic activity toward Ser-AMC in comparison (%) to Leu-MCA,"[8]; substrate Ser-AMC, 5 mM, 37° C., 60 min",24.6%
same,hydrolytic activity toward Thr-AMC in comparison (%) to Leu-MCA,"[8]; substrate Thr-AMC, 5 mM, 37° C., 60 min",4.4%
same,hydrolytic activity toward Val-AMC in comparison (%) to Leu-MCA,"[8]; substrate Val-AMC, 5 mM, 37° C., 60 min",4.0%
same,digestion of the 33 mer,[9],partial deletion of N-terminal Leu and C-terminal Phe
same,hydrolytic activity toward Lys(Abz) Pro-PropNA in comparison (%) to Leu-MCA,[10],0.0%

# — patent publication US7943340B2, “Fungal dipeptidyl peptidase IV (DPPIV) enzyme for reagent use” (priority 2003, dated 2011)
